The assay concerns the target wild type RT1.A^a (rat MHC class I antigen) on transfected BUF (RT1^b) Morris hepatoma 7316A cells (rat). As to the kind of experiment: flow cytometry on BUF hepatoma cells transfected with WT-RT1.A^a, FITC rabbit anti-rat Ig.

The results in this text go back to patent US6051232.

Some results are limits rather than exact numbers.

“R2/15S anti-rat RT1.A^a class I polymorphic monoclonal antibody (tool reagent)” gave a positive staining (percent of cells) of more than 90%.
